Results on 30 sequences are retold here after the nanobody polyreactivity screen of Harvey et al. (2022).

The nature of the data set: yeast display, Sf9 membrane polyspecificity reagent, FACS + sequencing; frameworks hold sequencing errors. A digest of the protocol:
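Genes from sorted yeast were amplified by colony PCR, read by MiSeq 2 × 250 sequencing and filtered on CDR length. These cells carried a synthetic nanobody library in Saccharomyces cerevisiae BJ5465 and were sorted by FACS into low and high (top ~1%) gates on anti-HA and streptavidin fluorescence. Polyreactivity is labelled according to the gate of origin.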
Regarding “QVQPVESGGGLVQAGGSLRLSCAASGSTFTVNAMRWYRQPPGNERELVAAITFSGTSTYYADSVKGRFTISRDNAKNTVYLQMNSLKPEDTAVYYCNAVVWGYSKSLGDTRTKYEYWGQVTQVTVSS”, the “polyreactivity (PSR sort gate)” value is “high polyreactivity”.
The value for “QVQQLESAGGLVQAGGSLRLSCAASGTITVLYKMGWFRQAPGKEREFVASINYGTSTYYADSVKGRFSVSPDSAKHTVYLQMNSLNPEDTAVYYCAAAYRWQDVYRYWGLGTQVTVSS” was “low polyreactivity”; that for “QVQQQESGGGLVQAGGSLRLSCAASGNTSDTGYMGWYRQAPGKERKVVASIDYGSNTYYADSVKVRFTISRDNAKNTVYLQMNSLKPEDTAVYYCAAYYIGDYTLVYWGQGTQVTVSS” was “high polyreactivity”.
The entry for “QVQQQESGGGLVQAGGSLRLSCAASGTIFQLTVMGRYRQAPGKDRELVASIDYGGNTNYADSVKGRFTISRDNAKNTVYLQMNCRKPEDTAVYYCAASSDSWTTHPYWGQGTQVTVRS” is “low polyreactivity”; for “QVQQQESGGGLVQAGGSLRLSCAASGYIFQAENMGWYRQAPGKERELVAAITIGASTYYADSVRGRFTISRDNAKNTVYLQMNSVKPEDTAVYYCAAKRFQYRTLYDYWGQGTQVTVSS” it is “high polyreactivity”; for “QVQQVESWGGLLQAGGSLRLSCAASGSIFTLYAMGWYREAPGKERELVADITWSGGSTYYADSVKGRFTISRDNAKNTVYLEMNSLKPEDTAVYYCAIDYLAGGPWEGHVEREYDYWGQGTQVTVSS” it is “low polyreactivity”.
The value for “QVQREESGGGLVQAGGSLRLSCAASGFTFRYYAMGRYRQAPGKERELVAAITWSGGSTYYADSVKGRFTISRDNAKNTVYLQLNSLKPEDTAVYYCNVEAVAWWPEEDYWGQGTQVTVSS” was “high polyreactivity”; that for “QVQREESGGGLVQAGGSLRLSCAASGLTFTTYAMGWYRQAPGKERELVAAISRRGSRTYYADSVKGRFTISRDNAKNTVYLQMNSLKPEDTAVYYCNALTGSFKTYSFDYWGQGSQVTVSS” was “high polyreactivity”.
Consider “QVQRVDSGGGIVQAGGSLRLSCADSGSIFNRYAMGWYRQAPGKERELFAAISSSSGSTYYADSVKGRFTISRDNSKNTVYLQMNSLKPEDTAVYYCATRRKVVPTQVGYYYRGGVDYWGQGTQVTVSS”, for which the “polyreactivity (PSR sort gate)” value is given as “high polyreactivity”.
Regarding “QVQRVDSGGGLVQAGGSLRLSCAASGSTFPGYAMGWYRQAPGKERELVAAISKRGGSTRYADSVKGRFTISRDNAKNTVYLQMNSLKPEDTAVYYCAASYSYSGSGGGYWGQVTQVTVSS”, the “polyreactivity (PSR sort gate)” value is “high polyreactivity”.
Regarding “QVQRVESGGDLVQAGGSLRLSCAASGFIYTYYAMGWYRLAPGKERDFVATINWSDGSTRYADSVKGRFTISRDNAKNTVYLQMNSLKPEDTAVYYCAKDWFNRPSGEMDYCGQGTQVTVSS”, the “polyreactivity (PSR sort gate)” value is on record as “low polyreactivity”.
The value for “QVQRVESGGGLGQAGGSLRLSCAASGIIFDYYAMGWYRQAPGNERELVAAITTSGGRTYYADSVKGRFTISRDNEKNTVYLQMNRLKPEDTAVYYCAASRPSPRPRDGYWGQGTQVTVSS” was “high polyreactivity”; that for “QVQRVESGGGLVLAGGSLRLSSAASGITFVRYAMGGYRQAPVKERELVAVISRGGITNYADSVMGRFTISRDNAKNTVYLQMNSLKPEDTAVYYCAVRARSYVRTYDYWGQGTQVTVSS” was “high polyreactivity”.
The entry for “QVQRVESGGGLVQAGCSLRLSCAATGSTFRDYTMGGYRQEPGKERELVADITWRSGRTYYADSVMGRFTISRDYAMNTVYLQMNSLKPEDTAVYYCAAATRVKVNGLYSYYYRYDYWGLGTQVTVSS” is “high polyreactivity”.
For the sequence “QVQRVESGGGLVQAGGRLLLSCAASGSIFPPNAMGWYREAPGKERELVAAISGSGRTYYADSVKGRFTISRDNAKNTVYLQMNSLKPEDTAVYYCAARQQRRPTTRDFGFWGQGTQVTVSS”, the “polyreactivity (PSR sort gate)” value is listed as “high polyreactivity”.
“QVQRVESGGGLVQAGGRLRLSCAASGRIFIYYAMGWYRQAPGKERELVAAISSSGASTYYADSVKGRFTISRDNAKNTVYLQMISLKPEDTAVYYCAALYYRGGAFPLDYWGQGTQVTVSS”: the “polyreactivity (PSR sort gate)” value is on record as “low polyreactivity”.
The entry for “QVQRVESGGGLVQAGGRLRLSCAASGSTFRQYAMGWYRQAPGKERELVAAITGGGGSTYYADSVKGRFTISRDNAKNTVYLQMNSLKPEDTAVYYCNAVHRYERDYWGQGTQVTVSS” is “high polyreactivity”; for “QVQRVESGGGLVQAGGSLGLSCAATGSTFTVYAMGWYRQATGTERELVASITFTGGSTYYADSVKGRFTISRDNAKNTVYLQMISLKPEVTEVYYCAAYGWRVHDRWFFERDYWGQGTQVTVSS” it is “high polyreactivity”.
The value for “QVQRVESGGGLVQAGGSLRLSCAAAGLTFYGYAMGWYRQAPGKERELVAAITRSGGSTYYADSVKGRFTISRDNAKNTVYLQMNSLKPEDTAVYYCAAEEEYLYQSNRLHPYDYWGQGTQVTVSS” was “low polyreactivity”; that for “QVQRVESGGGLVQAGGSLRLSCAASGANFSRYAMGWYRPAPGKERELVAAITSGGSTNYADSVKGRFTISRDNAKNTVYLQMTSLKPEDTAVYYCNKRYVVYPGNYWRYDYWGQGTQVTVSS” was “high polyreactivity”; that for “QVQRVESGGGLVQAGGSLRLSCAASGFIFKDNAMGWYRQARGKERELVAVISGTGGRTNSADSVKGRFTISRDNAKNTVYLQMNSLKPEDTAVYYCAAEGYYTSTYDLYDYYYWGQGTQVTVSS” was “low polyreactivity”.
As to “QVQRVESGGGLVQAGGSLRLSCAASGFIFRRYAMGWYRQAPGKERELVASISSGGNTNYADSVKGRFTISRDNAKNTVYLQMNSLKPEDTAVYYCNDEYRWIAYGYWGQGTQVTVSS”, the “polyreactivity (PSR sort gate)” value is given as “high polyreactivity”.
The value for “QVQRVESGGGLVQAGGSLRLSCAASGFIFYDYMGWYRQAPGKERVLVAVISYSGSSTYYADSVKGRFTISRDNAKNTVYLQMNSLKPEDNAVYYCAARKVNGWDYDYWGQGTQVTVSS” was “low polyreactivity”.
As for “QVQRVESGGGLVQAGGSLRLSCAASGFIFYGNTMGWYREAPGKERELVASITSGSSTHYAYSVKGRFTISRDNAKNTVYLQMNSLKPEDTAVYYCIVDDIQFGKYDYWGQGTQVTVSS”, the “polyreactivity (PSR sort gate)” value is on record as “low polyreactivity”.
On to “QVQRVESGGGLVQAGGSLRLSCAASGIIFDSYAMGWYRQAPGKERELVAAITSDSGRTYYADSVKGRFTISRDNAKNTVYLQMNSLKPEDTAVYYCAKGWDGTYDYWGQGTQVTVSS”, for which the “polyreactivity (PSR sort gate)” value is reported as “low polyreactivity”.
The entry for “QVQRVESGGGLVQAGGSLRLSCAASGRIFSNYAMGWYRQAPGKEREFVAAISGSGGSTYYADSVKGRFTISRDNAKNTVYLQMNSLKPEDTAVYYCSTSGPQYYSRNFDYWGQGTQVTVSS” is “low polyreactivity”.
The value for “QVQRVESGGGLVQAGGSLRLSCAASGRIFSWYTMGWYRQAPGKERELVAVITSGGTTKYADSVKGRFTISRDNAKNTVYLQMNSLKPEDTAVYYCNVAGRDYAVRWGSFDYWGQGTQVTVSS” was “low polyreactivity”; that for “QVQRVESGGGLVQAGGSLRLSCAASGRIFVRNVMGWYRQAPGKEREFVAAITTRGGSTYYADSVKGRFTISRDNAKNTVYLQMNSLKPEDTAVYYCAARYTLRLYWGQGTQVTVSS” was “high polyreactivity”.
Consider “QVQRVESGGGLVQAGGSLRLSCAASGRIFYPNAMGWYRQAPGTEREWVAGITRGGSTNYADSVKGRFTISRDNAKNTVYLQMNSLKPDDSAVDYCAKAIPAKIYSEAGSDYWGQGTQVTVSS”, for which the “polyreactivity (PSR sort gate)” value is “low polyreactivity”.
The entry for “QVQRVESGGGLVQAGGSLRLSCAASGRILGKYAMGRYIQAPGKEREVVAAIRLRGGSTYYADSVKGRFTISRDNAKNTVYLQMNSLKPEDTAVYYCAATYWDRSQAYNYWGQGTQVTVSY” is “high polyreactivity”.
